{"source": "paper PMC7221163", "origin": "cited, not measured here", "target": "insulin receptor (HIR) (Homo sapiens) (UniProt P06213)", "assay": "radioreceptor assay", "data": [{"substance": "insulin (from UniProt P01308)", "values": [{"measurement": "Kd", "result": 1.2, "unit": "nM"}]}]}
